Data taken from US20130101582A1, “Tiki1 and Tiki2, Wnt Inhibitors” (CHILDREN'S MEDICAL CENTER CORPORATION, priority 2010, published 2013).

What was measured:
TOPFLASH reporter = TOPFLASH reporter activation by Wnt3a produced from Tiki2-expressing L cells; format: cell-based; details: Wnt3a CM
Description: (§1) As Tiki proteins are related to bacterial proteins of unknown function, it was speculated that Tiki may antagonize Wnt signaling through a novel mechanism, possibly in an enzymatic fashion. Human Tiki2 was stably expressed in L cells or Wnt3a-expressing L cells (human Tiki1 was poorly expressed in L cells). […] In fact Wnt3a CM restored beta-catenin stabilization in Wnt3a-expressing cells that also expressed Tiki2 (FIG. 5A).

LRP6N-IgG = molecular target: T1, LRP6N-IgG (Homo sapiens, UniProt O75581); assay: Binding of Wnt3a CM to LRP6N-IgG, protein G precipitation
T1 construct: using the extracellular domain of mouse Fz8 (mFz8CRD-IgG) or LRP6 (LRP6N-IgG)
T1 sequence (O75581 20-1370 limits assumed): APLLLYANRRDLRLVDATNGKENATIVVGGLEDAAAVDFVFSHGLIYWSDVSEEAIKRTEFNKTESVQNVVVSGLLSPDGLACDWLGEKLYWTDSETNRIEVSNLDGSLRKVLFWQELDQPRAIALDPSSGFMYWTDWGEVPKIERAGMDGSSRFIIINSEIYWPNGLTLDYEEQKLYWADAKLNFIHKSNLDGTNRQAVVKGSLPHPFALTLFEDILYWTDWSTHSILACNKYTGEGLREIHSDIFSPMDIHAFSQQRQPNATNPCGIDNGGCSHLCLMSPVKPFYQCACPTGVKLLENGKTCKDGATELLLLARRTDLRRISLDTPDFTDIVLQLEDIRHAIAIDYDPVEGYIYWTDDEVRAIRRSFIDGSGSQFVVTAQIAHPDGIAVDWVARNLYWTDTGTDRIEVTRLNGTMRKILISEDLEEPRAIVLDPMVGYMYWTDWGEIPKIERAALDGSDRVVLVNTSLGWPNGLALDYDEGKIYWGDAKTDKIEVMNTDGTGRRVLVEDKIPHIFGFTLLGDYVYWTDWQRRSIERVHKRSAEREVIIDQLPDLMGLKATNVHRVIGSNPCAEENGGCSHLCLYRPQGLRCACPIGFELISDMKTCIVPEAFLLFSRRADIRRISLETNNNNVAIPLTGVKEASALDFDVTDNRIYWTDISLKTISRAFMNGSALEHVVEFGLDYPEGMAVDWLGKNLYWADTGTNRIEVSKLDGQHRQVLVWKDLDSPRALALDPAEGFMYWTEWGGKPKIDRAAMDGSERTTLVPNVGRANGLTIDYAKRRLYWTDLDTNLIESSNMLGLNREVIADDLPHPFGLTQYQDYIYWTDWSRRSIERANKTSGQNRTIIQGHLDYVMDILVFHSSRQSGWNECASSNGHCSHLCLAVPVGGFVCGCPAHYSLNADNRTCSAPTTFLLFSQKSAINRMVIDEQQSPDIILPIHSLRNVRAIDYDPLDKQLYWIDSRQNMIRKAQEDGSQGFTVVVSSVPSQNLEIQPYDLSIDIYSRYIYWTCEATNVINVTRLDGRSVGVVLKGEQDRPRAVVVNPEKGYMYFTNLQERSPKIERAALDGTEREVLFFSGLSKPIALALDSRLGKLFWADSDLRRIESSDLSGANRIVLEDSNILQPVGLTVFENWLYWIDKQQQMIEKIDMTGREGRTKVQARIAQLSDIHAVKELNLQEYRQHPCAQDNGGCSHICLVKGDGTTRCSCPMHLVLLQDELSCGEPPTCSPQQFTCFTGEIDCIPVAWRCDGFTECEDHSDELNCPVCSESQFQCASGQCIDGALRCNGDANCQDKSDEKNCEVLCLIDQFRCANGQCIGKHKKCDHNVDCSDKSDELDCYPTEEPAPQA
Procedure: Wnt3a CM was incubated with LRP6N-IgG or mFz8CRD-IgG. The protein complexes were precipitated by protein G agarose and subjected for Western blotting.
as §1

Wnt3a signaling = assay: TOPFLASH reporter assay, Wnt3a co-transfected with Tiki1 or Tiki2 in HEK293T cells; format: cell-based, human
Description: Wnt3a and Tiki1 or Tiki2 were co-transfected. The TOPFLASH reading (normalized to Renilla) in Wnt3a alone was set as 100. DNA transfection amounts are shown per well in a standard 24-well plate format. Representative data from one of three independent experiments is shown.
The enlarged head phenotype by Tiki1 overexpression is indistinguishable from that by overexpression of Dkk1, a Wnt/LRP6 antagonist (MacDonald, B. T. et al., Dev Cell 17, 9-26 (2009); Glinka, A. et al., Nature 391, 357-362 (1998)). […] Thus Tiki1 likely acts at or upstream of Wnt receptors. […] Xenopus Tiki2, and human Tiki1 and Tiki2 also behaved as Wnt antagonists in Xenopus embryos, HEK293T cells (FIG. 2C) and mouse L cells (FIG. 5A).

Wnt3a = Wnt3a (Mus musculus, UniProt P27467); assay: Metabolic labeling (az-15 / 35S) to quantify Wnt3a acylation in HEK293T cells; format: cell-based; design: expressed in transfected cells; host or cells: HEK293T; details: co-expressed with Wnt3a in HEK293T cells; versus GFP control
Sequence of Wnt3a (P27467 19-352): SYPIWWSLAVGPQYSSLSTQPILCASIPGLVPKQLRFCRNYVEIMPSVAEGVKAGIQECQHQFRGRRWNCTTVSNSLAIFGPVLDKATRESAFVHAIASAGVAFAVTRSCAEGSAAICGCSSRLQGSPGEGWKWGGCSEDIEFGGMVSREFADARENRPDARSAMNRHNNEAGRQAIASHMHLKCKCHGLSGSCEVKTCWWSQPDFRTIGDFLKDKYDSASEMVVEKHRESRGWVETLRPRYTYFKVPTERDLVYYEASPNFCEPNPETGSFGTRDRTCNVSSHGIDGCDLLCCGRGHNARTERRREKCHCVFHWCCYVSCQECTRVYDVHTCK
Procedure: FIG. 6E is a gel showing that Tiki2, but not the control GFP, reduces Wnt3a acylation in HEK293T cells (Top panel). The total amount of Wnt3a is constant (bottom panel).
Metabolic labeling was performed to quantify Wnt3a acylation. Wnt3a co-expressed with GFP (control) or hTiki2 in HEK293T cells was metabolically labeled with an azido-palmitic acid analog (az-15) and [^35S]-Methionine/Cysteine. Wnt3a secreted in the culture medium was immunoprecipitated and subjected to click chemistry reaction using the Rhodamine-labeled ALK reagent (ALK-Rho), which reacts with az-15 (Charron G et al., JACS 131, 4967, 2009). The fluorescent signal indicates the acylation amount of Wnt3a whereas ^35S signal indicates the total amount of Wnt3a protein (FIG. 6E). […] Thus the maximal reduction of acylation by Tiki2 is expected to be 50% if the deacylation is complete and there are only two acylation sites. The 31% reduction we observed is consistent with the possibility of three acylation sites, although it is also possible that there are only two acylation sites in Wnt3a, and Tiki2 deacylation of one of these two sites was incomplete in our experiment.

Binding of Wnt3a secreted from Tiki2-expressing cells to LRP6 (LRP6N-IgG) (LRP6N-IgG): failed to bind to either Fz or LRP6 | Reduction of Wnt3a acylation (Wnt3a): about 31%
B1: Tiki2: Human Tiki2 (XP 371250/LOC388630) (SEQ ID NO:2), expressed in L or HEK293T cells (protein, listed as Homo sapiens)
chain: MHAALAGPLLAALLATARARPQPPDGGQCRPPGSQRDLNSFLWTIRRDPPAYLFGTIHVPYTRVWDFIPDNSKAAFQASTRVYFELDLTDPYTISALASCQLLPHGENLQDVLPHELYWRLKRHLDYVKLMMPSWMTPAQRGKGLYADYLFNAIAGNWERKRPVWVMLMVNSLTERDVRFRGVPVLDLYLAQQAEKMKKTTGAVEQVEEQCHPLNNGLNFSQVLFALNQTLLQQESVRAGSLQASYTTEDLIKHYNCGDLSAVIFNHDTSQLPNFINTTLPPHEQVTAQEIDSYFRQELIYKRNERMGKRVMALLRENEDKICFFAFGAGHFLGNNTVIDILRQAGLEVDHTPAGQAIHSPAPQSPAPSPEGTSTSPAPVTPAAAVPEAPSVTPTAPPEDEDPALSPHLLLPDSLSQLEEFGRQRKWHKRQSTHQRPRQFNDLWVRIEDSTTASPPPLPLQPTHSSGTAKPPFQLSDQLQQQDPPGPASSSAPTLGLLPAIATTIAVCFLLHSLGPS
Activity of Wnt3a produced from Tiki2-expressing L cells in activation of TOPFLASH reporter expression (TOPFLASH reporter): minimal activity | Wnt3a signaling, TOPFLASH reporter (Wnt3a signaling): inhibit Wnt3a signaling
